Data as given in paper PMC7196523.

B1: TCR clonotype 1 specific for MCPyV CT AA 32–40 (subject 1233) (peptide)
chain 1: CVVNGNNNDMRF
chain 2: CASSQGFGANVLTF
B2: TCR clonotype 2 specific for MCPyV CT AA 32–40 (subject 1233) (peptide)
chain 1: CVVNNNNNDMRF
chain 2: CASVSGQGVSPLHF
B3: TCR clonotype 3 specific for MCPyV CT AA 32–40 (subject 1233) (peptide)
chain 1: CAGARNDYKLSF
chain 2: CATSRDGAGLVNQPQHF
B4: TCR clonotype 1 specific for MCPyV LT AA 95–103 (subject 1233) (peptide)
chain 1: CAVRALGNAGNMLTF
chain 2: CASSPNPQGANMDTQYF

Tests used:
[1] = target: MCPyV common T antigen (CT; shared N-terminal domain of LT and ST) peptide on HLA-A*03:01 (human); test: IFNγ ELISA
[2] = target: MCPyV large T antigen (LT) peptide on HLA-A*03:01 (human); test: IFNγ ELISA; settings: chains alpha TRAV3*00 CDR3:beta TRBV4-3*00 CDR3
[3] = chains alpha TRAV12-1*00 CDR3:beta TRBV19*00 CDR3

| Binder | EC50 of peptide [1, 3] | other results |
| --- | --- | --- |
| B1 | 0.0076 µg/mL | – |
| B2 | 0.0236 µg/mL | – |
| B3 | – | EC50 of peptide ([1]; chains alpha TRAV25*00 CDR3:beta TRBV15*00 CDR3): 0.0234 µg/mL |
| B4 | – | EC50 of peptide [2]: 0.0019 µg/mL |
